According to publication PMC9482650, “Quantitative fragmentomics allow affinity mapping of interactomes” (Nature Communications, 2022):

T1: SNTG1, Q9NSN8
T1 sequence (Q9NSN8 52-150, limits assumed, looked up): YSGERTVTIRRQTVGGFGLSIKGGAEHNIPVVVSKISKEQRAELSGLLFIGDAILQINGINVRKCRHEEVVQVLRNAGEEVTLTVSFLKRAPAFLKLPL

T2: SIPA1L2, Q9P2F8
T2 sequence (Q9P2F8 945-1036, limits assumed, looked up): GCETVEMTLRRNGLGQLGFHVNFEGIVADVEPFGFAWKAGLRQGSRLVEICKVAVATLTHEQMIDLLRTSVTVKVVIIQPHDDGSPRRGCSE

T3: NHERF3_3, Q5T2W1
T3 sequence (Q5T2W1 238-333, limits assumed, looked up): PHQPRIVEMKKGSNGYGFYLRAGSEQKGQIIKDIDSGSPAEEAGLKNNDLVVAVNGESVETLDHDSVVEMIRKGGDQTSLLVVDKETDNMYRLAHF

T4: PDZD2_2, O15018
T4 sequence (O15018 329-429, limits assumed, looked up): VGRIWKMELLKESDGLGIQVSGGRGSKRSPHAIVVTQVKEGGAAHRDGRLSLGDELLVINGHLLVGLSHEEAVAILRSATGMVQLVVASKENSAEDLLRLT

T5: SNTA1, Q13424
T5 sequence (Q13424 82-180, limits assumed, looked up): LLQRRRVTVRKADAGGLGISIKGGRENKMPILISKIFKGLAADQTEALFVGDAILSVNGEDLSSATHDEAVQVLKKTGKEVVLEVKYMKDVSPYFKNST

T6: CARD11, Q9BXL7
T6 sequence (Q9BXL7 662-765, limits assumed, looked up): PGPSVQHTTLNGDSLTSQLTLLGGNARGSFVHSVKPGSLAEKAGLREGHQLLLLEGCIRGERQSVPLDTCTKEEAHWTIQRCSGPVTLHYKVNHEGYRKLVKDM

T7: NHERF3_4, Q5T2W1
T7 sequence (Q5T2W1 373-468, limits assumed, looked up): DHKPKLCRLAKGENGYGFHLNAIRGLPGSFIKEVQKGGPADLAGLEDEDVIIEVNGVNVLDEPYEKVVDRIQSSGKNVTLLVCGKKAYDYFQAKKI

T8: HTRA4, P83105
T8 sequence (P83105 378-476, limits assumed, looked up): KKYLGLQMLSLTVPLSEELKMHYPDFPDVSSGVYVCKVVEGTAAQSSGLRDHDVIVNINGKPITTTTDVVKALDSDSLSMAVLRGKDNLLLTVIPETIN

T9: GRIP1_2, Q9Y3R0
T9 sequence (Q9Y3R0 145-248, limits assumed, looked up): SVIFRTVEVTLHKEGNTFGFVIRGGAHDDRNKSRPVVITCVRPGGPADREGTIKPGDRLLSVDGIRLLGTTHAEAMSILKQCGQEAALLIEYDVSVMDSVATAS

T10: TJP3_3, O95049
T10 sequence (O95049 375-456, limits assumed, looked up): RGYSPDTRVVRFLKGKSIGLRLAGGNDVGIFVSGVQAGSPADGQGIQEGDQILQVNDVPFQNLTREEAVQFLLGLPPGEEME


How the values were obtained:
Test in all cases: holdup assay
Parameters in all cases: key: below the threshold = too weak to quantify, mostly under pKd 3.1 to 4
Conditions in all cases: plain residues with an end cap or a label only (N-terminal biotin on a linker: ado-ado)
CASK, O14936 = biological target: CASK, O14936
NHERF4_2, Q86UT5 = biological target: NHERF4_2, Q86UT5
Inadl_5, Q8NI35 = biological target: Inadl_5, Q8NI35
SNTG1, Q9NSN8 = biological target: T1, SNTG1, Q9NSN8
SIPA1L2, Q9P2F8 = biological target: T2, SIPA1L2, Q9P2F8
NHERF3_3, Q5T2W1 = biological target: T3, NHERF3_3, Q5T2W1
HTRA1, Q92743 = biological target: HTRA1, Q92743
LDB3, O75112 = biological target: LDB3, O75112
PICK1, Q9NRD5 = biological target: PICK1, Q9NRD5
MAST1, Q9Y2H9 = biological target: MAST1, Q9Y2H9
MAGI2_3, Q86UL8 = biological target: MAGI2_3, Q86UL8
SCRIB_2, Q14160 = biological target: SCRIB_2, Q14160
LNX1_3, Q8TBB1 = biological target: LNX1_3, Q8TBB1
MAGI2_4, Q86UL8 = biological target: MAGI2_4, Q86UL8
MAGI2_5, Q86UL8 = biological target: MAGI2_5, Q86UL8
FRMPD2_1, Q68DX3 = biological target: FRMPD2_1, Q68DX3
PDZD2_2, O15018 = biological target: T4, PDZD2_2, O15018
SNTA1, Q13424 = biological target: T5, SNTA1, Q13424
GRIP2_3, Q9C0E4 = biological target: GRIP2_3, Q9C0E4
CARD11, Q9BXL7 = biological target: T6, CARD11, Q9BXL7
GRIP2_4, Q9C0E4 = biological target: GRIP2_4, Q9C0E4
DLG2_2, Q15700 = biological target: DLG2_2, Q15700
NHERF3_4, Q5T2W1 = biological target: T7, NHERF3_4, Q5T2W1
HTRA4, P83105 = biological target: T8, HTRA4, P83105
Inadl_6, Q8NI35 = biological target: Inadl_6, Q8NI35
GRIP1_2, Q9Y3R0 = biological target: T9, GRIP1_2, Q9Y3R0
TJP3_3, O95049 = biological target: T10, TJP3_3, O95049
PTPN3, P26045 = biological target: PTPN3, P26045
GOPC, Q9HD26 = biological target: GOPC, Q9HD26

Chain of NHERF4_2, Q86UT5 (Q86UT5 220-308): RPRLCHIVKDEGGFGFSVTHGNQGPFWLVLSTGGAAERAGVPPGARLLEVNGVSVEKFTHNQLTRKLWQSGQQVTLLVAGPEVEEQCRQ
Chain of PTPN3, P26045 (P26045 505-587): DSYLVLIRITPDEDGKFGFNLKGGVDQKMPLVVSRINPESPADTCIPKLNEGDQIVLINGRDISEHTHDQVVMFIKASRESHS
Chain of Inadl_6, Q8NI35 (Q8NI35 1058-1167): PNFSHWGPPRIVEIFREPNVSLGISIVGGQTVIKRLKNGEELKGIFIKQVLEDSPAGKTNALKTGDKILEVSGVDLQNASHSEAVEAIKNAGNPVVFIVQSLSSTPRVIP
Chain of CASK, O14936 (O14936 487-570): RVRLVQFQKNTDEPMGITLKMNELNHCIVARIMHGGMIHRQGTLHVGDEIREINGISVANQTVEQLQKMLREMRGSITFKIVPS
Chain of HTRA1, Q92743 (Q92743 360-477): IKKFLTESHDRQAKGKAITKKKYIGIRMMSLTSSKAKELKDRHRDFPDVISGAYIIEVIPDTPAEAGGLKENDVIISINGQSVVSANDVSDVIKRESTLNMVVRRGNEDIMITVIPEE
Chain of DLG2_2, Q15700 (Q15700 189-283): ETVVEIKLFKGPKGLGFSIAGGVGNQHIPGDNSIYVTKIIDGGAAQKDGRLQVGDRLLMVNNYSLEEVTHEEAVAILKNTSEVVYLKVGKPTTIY
Chain of Inadl_5, Q8NI35 (Q8NI35 673-780): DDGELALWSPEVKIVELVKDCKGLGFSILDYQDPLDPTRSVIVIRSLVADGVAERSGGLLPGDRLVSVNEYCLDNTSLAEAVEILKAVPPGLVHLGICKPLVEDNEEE
Chain of FRMPD2_1, Q68DX3 (Q68DX3 770-861): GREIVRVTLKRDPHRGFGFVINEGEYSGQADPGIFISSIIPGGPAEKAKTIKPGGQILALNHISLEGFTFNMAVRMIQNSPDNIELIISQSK
Chain of SCRIB_2, Q14160 (Q14160 857-960): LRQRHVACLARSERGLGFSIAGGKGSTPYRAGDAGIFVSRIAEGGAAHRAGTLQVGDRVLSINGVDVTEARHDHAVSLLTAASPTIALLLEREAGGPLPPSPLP
Chain of MAGI2_4, Q86UL8 (Q86UL8 772-865): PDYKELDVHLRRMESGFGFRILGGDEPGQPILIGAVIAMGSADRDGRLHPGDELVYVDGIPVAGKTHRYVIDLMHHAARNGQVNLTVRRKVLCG
Chain of LNX1_3, Q8TBB1 (Q8TBB1 500-596): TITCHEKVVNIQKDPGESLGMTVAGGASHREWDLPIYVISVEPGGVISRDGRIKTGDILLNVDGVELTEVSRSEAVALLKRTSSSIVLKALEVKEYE
Chain of LDB3, O75112 (O75112 1-94): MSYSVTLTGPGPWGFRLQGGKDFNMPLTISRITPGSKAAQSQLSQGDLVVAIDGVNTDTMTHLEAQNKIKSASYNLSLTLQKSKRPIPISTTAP
Chain of GRIP2_3, Q9C0E4 (Q9C0E4 238-339): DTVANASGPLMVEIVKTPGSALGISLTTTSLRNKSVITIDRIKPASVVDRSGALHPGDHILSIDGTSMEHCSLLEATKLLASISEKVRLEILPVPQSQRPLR
Chain of MAST1, Q9Y2H9 (Q9Y2H9 962-1065): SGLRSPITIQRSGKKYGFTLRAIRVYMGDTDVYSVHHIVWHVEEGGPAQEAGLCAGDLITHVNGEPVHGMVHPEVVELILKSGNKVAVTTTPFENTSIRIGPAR
Chain of MAGI2_3, Q86UL8 (Q86UL8 600-682): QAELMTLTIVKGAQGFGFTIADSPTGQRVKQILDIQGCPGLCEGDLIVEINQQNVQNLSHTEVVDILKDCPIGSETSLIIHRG
Chain of PICK1, Q9NRD5 (Q9NRD5 17-115): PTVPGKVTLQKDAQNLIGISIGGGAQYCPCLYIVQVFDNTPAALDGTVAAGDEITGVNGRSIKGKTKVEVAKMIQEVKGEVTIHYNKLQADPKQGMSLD
Chain of GRIP2_4, Q9C0E4 (Q9C0E4 446-548): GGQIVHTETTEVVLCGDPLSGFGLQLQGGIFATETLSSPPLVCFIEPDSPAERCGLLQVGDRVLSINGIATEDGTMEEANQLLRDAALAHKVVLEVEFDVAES
Chain of MAGI2_5, Q86UL8 (Q86UL8 915-1017): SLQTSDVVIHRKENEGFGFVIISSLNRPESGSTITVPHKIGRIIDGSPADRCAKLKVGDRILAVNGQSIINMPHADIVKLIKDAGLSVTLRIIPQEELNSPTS

| Binder | pKd (CASK, O14936) | pKd (NHERF4_2, Q86UT5) | pKd (Inadl_5, Q8NI35) | pKd (SNTG1, Q9NSN8) | pKd (SIPA1L2, Q9P2F8) | pKd (NHERF3_3, Q5T2W1) | pKd (HTRA1, Q92743) | pKd (LDB3, O75112) | pKd (PICK1, Q9NRD5) | pKd (MAST1, Q9Y2H9) | pKd (MAGI2_3, Q86UL8) | pKd (SCRIB_2, Q14160) | pKd (LNX1_3, Q8TBB1) | pKd (MAGI2_4, Q86UL8) | pKd (MAGI2_5, Q86UL8) | pKd (FRMPD2_1, Q68DX3) | pKd (PDZD2_2, O15018) | pKd (SNTA1, Q13424) | pKd (GRIP2_3, Q9C0E4) | pKd (CARD11, Q9BXL7) | also measured |
| --- | --- | --- | --- | --- | --- | --- | --- | --- | --- | --- | --- | --- | --- | --- | --- | --- | --- | --- | --- | --- | --- |
| IQISELETNV [SLC1A7, O00341] | below the threshold | below the threshold | below the threshold | 5.26 | below the threshold | below the threshold | 3.76 | below the threshold | 4.18 | 4.71 | 3.96 | 4.16 | below the threshold | 3.56 | 4.11 | below the threshold | 4.97 | 4.98 | below the threshold | below the threshold | pKd (GRIP2_4, Q9C0E4): below the threshold; pKd (DLG2_2, Q15700): 4.56; pKd (NHERF3_4, Q5T2W1): below the threshold; pKd (HTRA4, P83105): 3.9; pKd (Inadl_6, Q8NI35): 4.04; pKd (GRIP1_2, Q9Y3R0): below the threshold; pKd (TJP3_3, O95049): below the threshold; pKd (PTPN3, P26045): 4.84; pKd (GOPC, Q9HD26): below the threshold |
| TNSKQGETTV [FZD1, Q9UP38] | below the threshold | below the threshold | 3.5 | 4.31 | below the threshold | below the threshold | 4.34 | below the threshold | 4.2 | 4.32 | 3.83 | 4.01 | below the threshold | 4.13 | below the threshold | 3.79 | 3.93 | 4.51 | below the threshold | below the threshold | pKd (GRIP2_4, Q9C0E4): below the threshold; pKd (DLG2_2, Q15700): 4.82; pKd (NHERF3_4, Q5T2W1): below the threshold; pKd (HTRA4, P83105): 3.79; pKd (Inadl_6, Q8NI35): below the threshold; pKd (GRIP1_2, Q9Y3R0): 3.49; pKd (TJP3_3, O95049): below the threshold; pKd (PTPN3, P26045): 4.79; pKd (GOPC, Q9HD26): 3.67 |
| TFSRRPKTRV [CD226, Q15762] | below the threshold | below the threshold | below the threshold | below the threshold | below the threshold | 3.63 | below the threshold | below the threshold | below the threshold | 4.24 | below the threshold | 3.54 | 3.5 | below the threshold | below the threshold | 3.73 | below the threshold | 3.79 | below the threshold | below the threshold | pKd (GRIP2_4, Q9C0E4): 3.54; pKd (DLG2_2, Q15700): below the threshold; pKd (NHERF3_4, Q5T2W1): below the threshold; pKd (HTRA4, P83105): 4.01; pKd (Inadl_6, Q8NI35): below the threshold; pKd (GRIP1_2, Q9Y3R0): 3.57; pKd (TJP3_3, O95049): below the threshold; pKd (PTPN3, P26045): below the threshold; pKd (GOPC, Q9HD26): 4.56 |
| AKADAQESRL [PLCB2, Q00722] | below the threshold | below the threshold | below the threshold | below the threshold | below the threshold | 3.85 | below the threshold | below the threshold | below the threshold | 4.85 | 3.51 | below the threshold | below the threshold | below the threshold | 3.59 | below the threshold | below the threshold | 4.2 | below the threshold | below the threshold | pKd (GRIP2_4, Q9C0E4): below the threshold; pKd (DLG2_2, Q15700): below the threshold; pKd (NHERF3_4, Q5T2W1): below the threshold; pKd (HTRA4, P83105): 3.85; pKd (Inadl_6, Q8NI35): 3.48; pKd (GRIP1_2, Q9Y3R0): below the threshold; pKd (TJP3_3, O95049): below the threshold; pKd (PTPN3, P26045): 4.74; pKd (GOPC, Q9HD26): 4.1 |
| KSRPENGTVC [TMEM178B, H3BS89] | below the threshold | below the threshold | below the threshold | below the threshold | below the threshold | below the threshold | 4.32 | below the threshold | below the threshold | below the threshold | below the threshold | below the threshold | below the threshold | 3.74 | below the threshold | below the threshold | 3.59 | below the threshold | below the threshold | below the threshold | pKd (GRIP2_4, Q9C0E4): below the threshold; pKd (DLG2_2, Q15700): below the threshold; pKd (NHERF3_4, Q5T2W1): below the threshold; pKd (HTRA4, P83105): below the threshold; pKd (Inadl_6, Q8NI35): below the threshold; pKd (GRIP1_2, Q9Y3R0): below the threshold; pKd (TJP3_3, O95049): below the threshold; pKd (PTPN3, P26045): 3.77; pKd (GOPC, Q9HD26): below the threshold |
